US20220073643A1 (NANJING GENSCRIPT BIOTECH, published 2022)
Several values for one entry are separate records, joined by “and”; a condition that tells them apart may be missing. Equal values may be shown once. Read-outs that look alike come from different tables or passages of the source. Each block holds one binder with its values, some of them ahead of it.

What was measured:
human Claudin18.2 [1] = molecular target: human Claudin18.2 (human); experiment: cell-based or functional assay
human Claudin18.2 [2] = molecular target: human Claudin18.2 (human); experiment: cell-based or functional assay; remark: listed apart in the source
human Claudin18.2 [3] = molecular target: T1, human Claudin18.2 (human); experiment: FACS, Claudin18.2-HEK293 cells
T1 construct: also called CLDN18.2
Description: (§1) The binding of chimeric antibodies to Claudin18.2 expressed on HEK293 cells was determine by FACS analysis. Briefly, HEK293 cells expressing human Claudin18.2 as prepared in the foregoing Example were harvested and incubated with anti-Claudin18.2 mAbs at 4° C. for 40 min, followed by fluorophore (iFluor 647)-labeled goat […] IgG (H+L) secondary antibodies at 4° C. for 0.5 hour. The samples were then analyzed by flow cytometry.

human Claudin18.2 [4] = molecular target: T1, human Claudin18.2; experiment: FACS, Claudin18.2-HEK293 cells; remark: listed apart in the source
human Claudin18.2 [5] = molecular target: T1, human Claudin18.2; experiment: FACS, Claudin18.2-HEK293 cells; remark: listed apart in the source
Description: as §1

ADCC % Relative activity (human Claudin18.2 [1]): 535%
ADCC EC50 (human Claudin18.2 [1]): 0.00494 µg/mL
CDC % Relative activity (human Claudin18.2 [2]): 2020%
CDC EC50 (human Claudin18.2 [2]): 0.105 µg/mL
EC50 (human Claudin18.2 [3]): 677 pM
EC50 (human Claudin18.2 [4]): 0.555 µg/mL
Span (human Claudin18.2 [4]): 87900
B1: chimeric 412B6E4 (antibody, human IgG1, kappa, V domains shown)
VH: DVQLVESGGGLVQPGGSRKLSCAASGFTFSSFGVHWVRQAPEKGLEWVAYISSGSSTIYYAHSVKGRFTISRDNPKNTLFLQMTSLGSEDTATYYCARFYYGNSFAYWGQGTLVTVSA
VL: DIVMTQSPSSLTVTAGEKVTMSCKSSQSLLNSGNQKNYLTWYQQKPGQPPKMLIYWASTRESGVPDRFTGSGSGTDFTLTISSVQAEDLAVYYCQNAYTYPLTFGAGTRLELKR
notes: chimeric, human IgG1/kappa constant regions; also called 412B6E4-Chimeric

EC50 (human Claudin18.2 [5]): 596 pM
CDC EC50 (human Claudin18.2 [2]): 2.7 µg/mL and 2.3 µg/mL and 2.12 µg/mL
EC50 (human Claudin18.2 [3]): 517 pM
B2: IMAB362 analog (Claudiximab, Zolbetuximab) (antibody, V domains shown)
VH: QVQLQQPGAELVRPGASVKLSCKASGYTFTSYWINWVKQRPGQGLEWIGNIYPSDSYTNYNQKFKDKATLTVDKSSSTAYMQLSSPTSEDSAVYYCTRSWRGNSFDYWGQGTTLTVSS
VL: DIVMTQSPSSLTVTAGEKVTMSCKSSQSLLNSGNQKNYLTWYQQKPGQPPKLLIYWASTRESGVPDRFTGSGSGTDFTLTISSVQAEDLAVYYCQNDYSYPFTFGSGTKLEIK
notes: in-house prepared analog; chimeric IgG1
